In the experiment the target is T1, recombinant human IL-13Rα2Fc chimera protein (R&D) (human, UniProt Q14627 27-343, biotinylated (sulfo-NHS-biotin) in the immunofluorescence assay only).
T1 construct: Bought protein (R&D); It was used biotinylated in the IFA and unlabelled in the migration assay; also called huIL-13Rα2Fc chimeric protein; HuIL-13Rα2Fc; Fc part of the bought chimera not given
T1 sequence (looked up): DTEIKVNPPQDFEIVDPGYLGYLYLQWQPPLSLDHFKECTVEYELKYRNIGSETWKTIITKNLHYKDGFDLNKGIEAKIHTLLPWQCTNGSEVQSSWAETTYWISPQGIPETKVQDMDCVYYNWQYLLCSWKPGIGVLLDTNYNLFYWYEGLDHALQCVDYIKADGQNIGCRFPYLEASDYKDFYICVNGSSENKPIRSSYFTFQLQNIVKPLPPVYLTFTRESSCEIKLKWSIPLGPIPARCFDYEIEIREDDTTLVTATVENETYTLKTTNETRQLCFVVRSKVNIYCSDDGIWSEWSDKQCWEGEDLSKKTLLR
The experiment in a line: method not stated; affinity for recombinant IL-13Rα2Fc compared with the previously cloned scFv.

B1: IL-13Rα2 scFv (improved scFv-IL-13Rα2) (scFv)
scFv: QVQLVQSGAEVKKPGASVKVSCKASGYTFTSYAMHWVRQAPGQRLEWMGWINAGNGNTKYSQKFQGRVTITRDTSASTAYMELSSLRSEDTAVYYCARMNHMIPLKAWGQGTLVTVSSGGGGSGGGGSGGSALAIQMTQSPSSLSASVGDRVTITCRASQGIRNDLGWYQQKPGKAPKLLIYAASSLQSGVPSRFSGSGSGTDFTLTISSLQPEDFATYYCLQMYNYRTFGQGTKLEIKRA
notes: also called clone derived protein
Take B1: the “fold higher binding affinity compared to the previously cloned scFv ECD-IL-13Rα2 (Kioi et al. 2008)” value was above 4 fold.

Source of the values: patent publication US20240189351A1 (US Dept. of Health and Human Services, published 2024).
